In article PMC2120494:

Biological target: R-Ras or R-Ras(38V)
Assay: co-IP

Substance: Raf-1 kinase, baculovirus-produced (from UniProt P04049 1-648) (enzyme)
- percent of total Raf co-immunoprecipitated: 10 to 20%
